Results on two substances are retold here after paper PMC10936184.

In this experiment the target is MipA-His6 (Pseudomonas aeruginosa). Kind of experiment: nano-DSF; isothermal analysis with FoldAffinity: MipA-His6 (5 µM) incubated for 2 h at room temperature with PMB or PME from 76 nM up to 2.5 mM; one site model; fits at 51°C, 52°C and 53°C.

polymyxin B (peptide) displayed a Kd of 8.4 to 10 µM.
Under polymyxin E (peptide) stands 2.8 to 3.4 µM.
